Assays:
gel-filtered platelets = assay: Platelet aggregation (nephelometric aggregometry); type: cell-based, human; settings: for % Normalized Extent Aggregation: Thrombin (0.024 U/ml), (150 μM) as printed, mean ±S.D.
[1] = test system: endothelium-denuded rabbit aortic strips; assay: Vessel relaxation bioassay; type: cell-based; settings: for % Relaxation: 150 nM, contraction with 1 μM epinephrine, mean ±S.D., n=4
Description: New Zealand White female rabbits weighing 3–4 kg were anesthetized with 30 mg/kg IV sodium pentobarbital. Descending thoracic aortae were isolated and placed immediately in a cold physiologic salt solution (Kreb's) (mM): NaCl, 118; CKl, 4.7; CaCl2, 2.5; MgSO4, 1.2; KH2PO4, 1.2; NaHCO3, 12.5; and D-glucose, 11.0. The vessels were cleaned of adherent connective tissue, and the endothelium removed by gentle rubbing with a cotton tipped applicator inserted into the lumen, after which the vessel was cut into 5 mm rings. The rings were mounted on stirrups and connected to transducers (model FT03C Grass Instruments, Quincy, Mass.) by which changes in isometric tension were recorded.
Samples were added to a standard bioassay in which vessel rings were suspended in glass chambers containing seven mil of oxygenated Kreb's buffer, in a standard bioassay (Cook et al., Am. J. Physiol. 28:H804 (1989), herein incorporated by reference). Sustained contractions, to 2 gm tension, were induced with 1 μM epinephrine, after which the effects of t-PA and S—NO-t-PA were tested. In certain experiments the guanylate cyclase inhibitor, methylene blue, was preincubated with vessel rings for 15 minutes prior to initiation of contractions.
The vasodilatory actions of S-nitroso-BSA were examined in a standard bioassay containing endothelium-denuded rabbit aortic strips in Kreb's buffer, pH 7.5, at 37°, as described in Example 6.
In vessel experiments, relaxations to S—NO-BSA are expressed as-percent of tone induced by 1.0 μM norepinephrine.

PAI-1 = molecular target: T1, PAI-1 (Homo sapiens, UniProt P05121); assay: Inhibition of t-PA and S—NO-t-PA enzymatic activity by PAI-1 (S2288); type: biochemical; settings: direct chromogenic assay with S2288; n=3
T1 construct: gift of Dr. Douglas E. Vaughan
T1 sequence (P05121 24-402, species assumed): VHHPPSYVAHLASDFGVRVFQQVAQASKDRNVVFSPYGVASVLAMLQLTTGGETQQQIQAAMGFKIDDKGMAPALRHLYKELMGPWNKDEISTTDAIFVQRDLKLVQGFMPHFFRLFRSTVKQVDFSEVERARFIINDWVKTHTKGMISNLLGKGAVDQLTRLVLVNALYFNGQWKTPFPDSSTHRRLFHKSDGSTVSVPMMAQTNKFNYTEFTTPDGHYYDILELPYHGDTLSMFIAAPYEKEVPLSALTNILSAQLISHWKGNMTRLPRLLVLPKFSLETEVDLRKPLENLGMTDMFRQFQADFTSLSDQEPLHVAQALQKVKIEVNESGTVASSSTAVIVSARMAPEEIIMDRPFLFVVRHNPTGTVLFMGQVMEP
Description: (§1) The amidolytic activities of t-PA and its S-nitrosylated derivative were measured using the relatively specific chromogenic substrate, S2288. Substrate hydrolysis was measured spectrophotometrically at 405 nm with a Gilford Response UV/Vis Spectrophotometer (CIBA-Corning, Oberlin, Ohio). Activity was measured at 25° C. in TBS using substrate concentrations varying from 0.1–2.0 mM and t-PA at a concentration of 100 nM. Kinetic parameters were determined from initial rates by double reciprocal plot analysis. The assessment of inhibition of t-PA and S—NO-t-PA enzymatic activity by PAI-1 was made at an enzyme concentration of 10 nM and a molar ratio of t-PA to active PAI-1 of 1.0. The degree of inhibition was determined relative to the initial rates in the absence of the inhibitor.

glu-plasminogen = molecular target: T2, glu-plasminogen (Homo sapiens, UniProt P00747); assay: Coupled enzyme assay: activation of glu-plasminogen (S2251), with and without fibrinogen; type: biochemical; settings: for Km / kcat: GLU-plasminogen (S2251) activation
T2 construct: Glu-plasminogen was purified from fresh frozen plasma; from tissue; host or cells: fresh frozen plasma (lysine-Sepharose, then benzamidine-Sepharose)
T2 sequence (P00747 20-810 limits assumed): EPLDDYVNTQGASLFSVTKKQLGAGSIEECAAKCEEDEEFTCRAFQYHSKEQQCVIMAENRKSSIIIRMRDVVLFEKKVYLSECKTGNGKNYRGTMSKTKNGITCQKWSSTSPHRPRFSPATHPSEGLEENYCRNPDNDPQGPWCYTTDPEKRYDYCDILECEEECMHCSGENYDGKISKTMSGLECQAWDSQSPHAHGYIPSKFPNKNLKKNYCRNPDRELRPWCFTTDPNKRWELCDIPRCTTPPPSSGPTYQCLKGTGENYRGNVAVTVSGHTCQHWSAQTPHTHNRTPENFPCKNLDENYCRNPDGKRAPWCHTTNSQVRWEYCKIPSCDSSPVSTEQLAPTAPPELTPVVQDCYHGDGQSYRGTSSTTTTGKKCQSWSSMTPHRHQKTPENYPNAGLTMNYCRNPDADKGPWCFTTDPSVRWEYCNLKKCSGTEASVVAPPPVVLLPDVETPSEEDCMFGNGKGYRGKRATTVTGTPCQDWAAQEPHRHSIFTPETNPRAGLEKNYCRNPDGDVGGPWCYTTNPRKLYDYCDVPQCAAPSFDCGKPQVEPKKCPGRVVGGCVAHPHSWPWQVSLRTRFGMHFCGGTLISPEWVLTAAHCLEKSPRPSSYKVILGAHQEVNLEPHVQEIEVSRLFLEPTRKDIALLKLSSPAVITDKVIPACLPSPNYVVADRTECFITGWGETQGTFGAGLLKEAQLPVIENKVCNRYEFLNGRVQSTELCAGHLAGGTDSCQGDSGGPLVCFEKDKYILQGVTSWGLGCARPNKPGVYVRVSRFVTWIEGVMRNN
Description: Glu-plasminogen was purified from fresh frozen plasma thawed at 37° C. using a modification of the method of Deutsch and Mertz (Deutsch et al., Science 170:1095–1096 (1970), herein incorporated by reference). Plasma was passed over a lysine-Sepharose column and the column washed with 0.3 M sodium phosphate, pH 7.4, 3 mM EDTA. Plasminogen was eluted from the column with 0.2 M epsilon-aminocaproic acid, 3 mM EDTA, pH 7.4 Contaminant plasmin was removed by passing the eluted column over benzamidine sepharose 2B. The plasminogen obtained was subsequently dialyzed before use against 10 mM sodium phosphate, pH 7.4, 0.15 M NaCl.
In the coupled enzyme assay, t-PA and S—NO-t-PA activities were assayed using the […] S2251. In selected experiments, fibrinogen stimulation of enzymatic activity was assessed at a fibrinogen concentrations of 1 mg./ml. Substrate hydrolysis was measured spectrophotometrically with a Dynatech MR 5000 Card Reader (Dynatech, Chantilly, Va.) in TBS, pH 7.4, at 25° C. Initial reaction velocity was determined from the slope of the plot of absorbance (at 405 nm)/time vs. time (Randy, M. Biochim. Biophysica Acta 704:461–469 (1982)) using glu-plasminogen concentrations ranging from 0.1–10 μM at an S2251 concentrations of 0.8 mM. Kinetic parameters were determined from initial rates by double reciprocal plot analysis.

[2] = Amidolytic activity against chromogenic substrate S2288; type: biochemical; settings: S2288 hydrolysis; for Km: 25° C., TBS
Description: as §1

Row | Substance | concentrations at which inhibition of platelet aggregation was demonstrable (gel-filtered platelets; ADP (5 μM) or thrombin (0.024 U/ml)) | % Normalized Extent Aggregation (gel-filtered platelets) | % Relaxation [1] | relaxations in presence of guanylate cyclase inhibitor methylene blue ([1]; methylene blue preincubated 15 minutes) | inhibition of hydrolytic activity by PAI-1 (PAI-1) | fibrinogen stimulation greater than t-PA (glu-plasminogen; 0.1 μM plasminogen, fibrinogen 1 mg./ml) | Km (glu-plasminogen) | kcat (glu-plasminogen) | degree of fibrinogen stimulation compared with wild type t-PA (glu-plasminogen; physiologic (1 μM) plasminogen) | catalytic efficiency greater than that of native t-PA (glu-plasminogen; plasminogen activation) | kcat [2] | Km [2]
1 | S—NO-t-PA: derived from the nitrosylation of tissue-type plasminogen activator (t-PA) | 15 to 150 nM | 0.73 ± 0.28 % | 20 ± 7 % | attenuated | equally effective | 3.5 fold | 3.8 µM | 0.262 s⁻¹ | equivalent | 23% | 0.52 s⁻¹ | 295 µM
2 | t-PA: tissue-type plasminogen activator, provided by Genentech |  | 0.90 ± 0.15% | 2.5 ± 4% |  | equally effective |  | 3.5 µM | 0.200 s⁻¹ |  |  | 0.52 s⁻¹ | 280 µM
